The target in assay [1] is T1, human lymphotoxin (TNFβ) (human) (UniProt P01374).
T1 sequence (looked up): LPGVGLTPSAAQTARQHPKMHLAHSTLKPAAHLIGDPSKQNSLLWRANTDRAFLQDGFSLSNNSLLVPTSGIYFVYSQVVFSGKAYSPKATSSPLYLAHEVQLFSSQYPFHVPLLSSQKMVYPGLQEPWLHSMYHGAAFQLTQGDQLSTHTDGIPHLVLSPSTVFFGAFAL
The assay is described as follows: cell-based or functional assay.

Assay [2] has as its target human tumor necrosis factor-alpha (hTNFα) (human) (UniProt P01375). The assay is described as follows: cell-based or functional assay.

human tumor necrosis factor-alpha (hTNFα) (human), sequence (P01375 77-233): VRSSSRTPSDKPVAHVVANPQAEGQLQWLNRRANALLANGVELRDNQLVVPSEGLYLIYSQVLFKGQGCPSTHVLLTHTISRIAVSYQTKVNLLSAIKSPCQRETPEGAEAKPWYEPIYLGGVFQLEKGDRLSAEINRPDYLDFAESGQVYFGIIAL

In assay [1], “p75-sf2 (complete extracellular domain of p75 fused to the IgG1 heavy chain) (from UniProt P20333 23-257) (Fc fusion)” registered an amount needed for the same inhibition of human TNFβ, against p75P-sf2 of 3 fold.
Still for that read-out and setting: for “p55-sf2 (p55 TNF receptor/IgG1 heavy chain single fusion with truncated light chain JCK) (from UniProt P19438 3-159) (Fc fusion)” the value was 3 fold.

B1: chimeric mouse/human IgG1 anti-platelet mAb (7E3) (antibody, INN chains, looked up, V domains shown)
VH: EVQLQQSGTVLARPGASVKMSCEASGYTFTNYWMHWVKQRPGQGLEWIGAIYPGNSDTSYIQKFKGKAKLTAVTSTTSVYMELSSLTNEDSAVYYCTLYDGYYVFAYWGQGTLVTVSA
VL: EIVLTQSPVTLSVTPGDSVSLSCRASRDISNNLHWFQQTSHESPRLLIKYASQSMSGIPSRFSGSGSGTDFTLSINSVETEDFGMYFCQQTNSWPYTFGGGTKLEIK
modifications: chimeric IgG1
In assay [2], B1 had an IL-6 secreted by FS-4 fibroblasts, 0.3 ng/ml rhTNF with 4 µg/ml antibody (no antibody: 1.36) of 1.6 ng/mL; an IL-6 secreted by FS-4 fibroblasts, 1.5 ng/ml rhTNF with 4 µg/ml antibody (no antibody: 2.00) of 1.96 ng/mL; an IL-6 secreted by FS-4 fibroblasts, 7.5 ng/ml rhTNF with 4 µg/ml antibody (no antibody: 2.56) of 2.16 ng/mL.

Values taken from patent US20030175837A1.
